Data reported in US20050112723A1, “Mammalian cell lines specifically deficient in O-linked glycosylation” (priority 2003, published 2005).
Entries after “also recorded” stand apart in the source; their conditions may differ.

Legend:
ldlD cells = conditions: Krieger et al. (1989); cited from earlier work
wild-type CHO cells = conditions: Krieger et al. (1989); cited from earlier work
[1] = system: UDP-gal/UDP-glc interconversion; assay: In vitro UDP-gal activity assays on protein extracts from transfected ldlD cells; type: biochemical; conditions: protein extracts of stably transfected ldlD cells, CMV promoter, FIG. 3 and 5
Experimental: (§1) In Vitro Assays for UDP-Gal: Aliquots of each purified enzyme from Example lwere stored in 50% glycerol with 4 mM NAD+ in liquid nitrogen, while crude extracts were stored at −80° C. until needed. All crude extracts were passed through Micro biospin 30 columns (Biorad) before being assayed for enzyme activity. Assays to determine the level of GALE activity with respect to UDP-Gal were performed essentially as previously described in Thoden et al. J Biol Chem Jul 26; 277(30):27528-34 (2002). […] For radioactive assay, conversion of UDP-Gal to UDP-Glc was measured in a 12.5-μl reaction containing 2.5 μl of premix (0.05 μCi of UDP-[^14C]Gal (Amersham Biosciences), […] cold UDP-Gal, 0.2 mM glycine buffer, pH 8.7), 2.5 μl of 20 mM NAD+, and 7.5 μl of purified protein diluted in Johnston buffer (20 mM HEPES/KOH, pH 7.5, 1 mM dithiothreitol, and 0.3 mg of bovine serum albumin/ml). Appropriate amounts of protein were used in each reaction in order to stay within the predetermined linear range of the assay. Reactions were incubated at 37° C for 30 min and were stopped by boiling at 100° C. for 10 min. […] Images were visualized with a Typhoon 9200 variable mode imager and quantified using ImageQuant software (both from Amersham Biosciences). Percent conversion was determined by dividing the product signal by the total signal and multiplying by 100. […] A 15 μl aliquot was then analyzed by HPLC. […]

[2] = system: UDP-galNAc/UDP-glcNAc interconversion; assay: UDP-GalNAc activity of GALE alleles expressed in ldlD cells; type: biochemical; conditions: enzyme expressed in ldlD cells, FIG. 6
Experimental: (§2) In Vitro Assay for UDP-GalNAc: The radioactive method for detecting conversion of UDP-GalNAc to UDP-GIcNAc was performed essentially as described above for UDP-Gal, with the following assay components per 25 μl of reaction: 8.75 μl of premix (0.04 μCi of UDP-[^14C]GalNAc (ICN), 1.89 mM cold UDP-GalNAc, 28.6 mM pyruvate, 286 mM glycine, pH 8.7, 5 μl of 20 mM NAD), and 11.25 μl of protein diluted in Johnston buffer. Appropriate amounts of protein were used in each reaction to stay within the predetermined linear range of the assay. Assays were performed as for UDP-Gal, with a TLC run-time of 10 h and quantified as described for UDP-Gal.
(§3) For analysis by HPLC, protein samples were diluted with glycine buffer (100 mM glycine, pH 8.7) to a final volume of 7.5 μl. For each reaction, 2.5 μl of 20 mM NAD+, and 2.5 il of premix (3.3 mM UDP-GalNAc, and 500 mM glycine, pH 8.7) were added, for a final reaction volume of 12.5 μl. Assay mixtures were incubated at 37° C. for 30 min before stopping by addition of 2.5 volumes of ice-cold 100% methanol. Samples were vortexed, spun and dried as for UDP-Gal HPLC assays, and resuspended in 750 μl ddH2O. The suspension was added to an 0.2 μm nylon micro-spin filter tube, and spun for approximately 2.5 min at 4000 g. An aliquot of 20 μl was then analyzed by HPLC.
In this experiment, ldlD cells expressing WThGALE were used as a positive control, and ldlD cells expressing backbone alone were used as a negative control.

[3] = system: UDP-galNAc/UDP-glcNAc interconversion; assay: In vitro assay for UDP-GalNAc, purified enzymes; type: biochemical; conditions: purified enzyme expressed in Pichia pastoris, FIG. 1
Experimental: as §2, §3
HPLC Analysis of Carbohydrates: Carbohydrate detection by HPLC was based on the methods of Smits (1998) and de Koning (1992). HPLC analysis was carried out on a DX600 HPLC system (Dionex, Sunnyvale, CA) consisting of a Dionex AS50 autosampler, a Dionex GP50 gradient pump, and a Dionex ED50 electrochemical detector. Carbohydrates were separated on a CarboPac PA10 column, 250×4 mm, with a CarboPac PA10 guard column, 50×4 mm, placed before the analysis column, and a borate trap placed after. […]
The ED50 detector consisted of a gold electrode and a pH-Ag/AgCl reference electrode for signal detection by integrated amperometry. […] Carbohydrates were quantified using PeakNet software version 6.4 (Dionex) and based on integration of peak areas with comparison to standards. […]

[4] = system: UDP-gal/UDP-glc interconversion; assay: In vitro assay for UDP-Gal, purified enzymes; type: biochemical; conditions: purified enzyme expressed in Pichia pastoris, FIG. 1
Experimental: as §1

ability to interconvert UDP-GalNAc and UDP-GlcNAc [3] | UDP-GalNAc activity, % of that seen in WT hGALE [3] | Molecule | galactose concentration at which cells experience toxicity (ldlD cells) | galactose levels with no apparent toxicity (wild-type CHO cells) | activity with regard to UDP-gal/UDP-glc interconversion [1] | activity with regard to UDP-galNAc/UDP-glcNAc interconversion [2] | UDP-Gal activity (UDP-Gal/UDP-Glc interconversion) [4] | activity with regard to UDP-galNAc/UDP-glcNAc interconversion ([2]; listed as C307Y hGALE)
no ability | – | WTeGALE: wild-type E. coli GALE (UDP-galactose 4-epimerase) (protein, Eschesichia Coli) MRVLVTGGSGYIGSHTCVQLLQNGHDVIILDNLCNSKRSVLPVIERLGGKHPTFVEGDIRNEALMTEILHDHAIDTVIHFAGLKAVGESVQKPLEYYDNNVNGTLRLISAMRAANVKNFIFSSSATVYGDQPKIPYVESFPTGTPQSPYGKSKLMVEQILTDLQKAQPDWSIALLRYFNPVGAHPSGDMGEDPQGIPNNLMPYIAQVAVGRRDSLAIFGNDYPTEDGTGVRDYIHVMDLADGHVVAMEKLANKPGVHIYNLGAGVGNSVLDVVNAFSKACGKPVNYHFAPRREGDLPAYWADASKADRELNWRVTRTLDEMAQDTWHWQSRHPQGYPD | – | – | active | not significantly active | – | –
well | – | WThGALE: wild type human GALE (UDP-galactose 4-epimerase) (protein, UniProt Q14376 1-348, looked up) UDP-glucose 4-epimerase: MAEKVLVTGGAGYIGSHTVLELLEAGYLPVVIDNFHNAFRGGGSLPESLRRVQELTGRSVEFEEMDILDQGALQRLFKKYSFMAVIHFAGLKAVGESVQKPLDYYRVNLTGTIQLLEIMKAHGVKNLVFSSSATVYGNPQYLPLDEAHPTGGCTNPYGKSKFFIEEMIRDLCQADKTWNAVLLRYFNPTGAHASGCIGEDPQGIPNNLMPYVSQVAIGRREALNVFGNDYDTEDGTGVRDYIHVVDLAKGHIAALRKLKEQCGCRIYNLGTGTGYSVLQMVQAMEKASGKKIPYKVVARREGDVAACYANPSLAQEELGWTAALGLDRMCEDLWRWQKQNPSGFGTQA | – | – | – | very active | well | –

Continued, molecule first:

Molecule | ability to interconvert UDP-GalNAc and UDP-GlcNAc [3] | UDP-GalNAc activity, % of that seen in WT hGALE [3] | galactose concentration at which cells experience toxicity (ldlD cells) | galactose levels with no apparent toxicity (wild-type CHO cells) | activity with regard to UDP-gal/UDP-glc interconversion [1] | activity with regard to UDP-galNAc/UDP-glcNAc interconversion [2] | UDP-Gal activity (UDP-Gal/UDP-Glc interconversion) [4] | activity with regard to UDP-galNAc/UDP-glcNAc interconversion ([2]; listed as C307Y hGALE)
O=C[C@H](O)[C@@H](O)[C@@H](O)[C@H](O)CO [galactose] | – | – | greater than 75 μM | ≤ 10 mM | – | – | – | –
C307YhGALE: wild type hGALE except a tyrosine residue has been substituted for cysteine at position 307 (protein, Human polypeptide) MAEKVLVTGGAGYIGSHTVLELLEAGYLPVVIDNFHNAFRGGGSLPESLRRVQELTGRSVEFEEMDILDQGALQRLFKKYSFMAVIHFAGLKAVGESVQKPLDYYRVNLTGTIQLLEIMKAHGVKNLVFSSSATVYGNPQYLPLDEAHPTGGCTNPYGKSKFFIEEMIRDLCQADKTWNAVLLRYFNPTGAHASGCIGEDPQGIPNNLMPYVSQVAIGRREALNVFGNDYDTEDGTGVRDYIHVVDLAKGHIAALRKLKEQCGCRIYNLGTGTGYSVLQMVQAMEKASGKKIPYKVVARREGDVAAYYANPSLAQEELGWTAALGLDRMCEDLWRWQKQNPSGFGTQA | – | 2.30% | – | – | active | reduced to levels close to those seen in ldld cells expressing backbone alone; also recorded: reduced to levels close to those seen in IdiD cells expressing backbone alone | maintains wildtype levels | not significantly active
